Results taken from article PMC2892170 (Biochemistry, 2009).

Target: the molecule itself
Assay: SEC

B1: Enterococcus faecalis phosphopantothenoylcysteine synthetase (enzyme, UniProt A0ACD6TE34 1-257, looked up)
chain: MDVLVTAGGTSEPIDNVRSITNHSSGGLGKAIAESFLAAGHTVTYVTTKHALRPTQQLDLSIKEIETTVELATTLEQLFAEKQFDAIVHAMAVSDFTTEAAQTEEQFIDSFTQQLSEQTLPKTKEALATIVQNTLNQIADIPQTATKISSDTDRLLIFLKKNPKVIQMIRDKQPQTVLVGFKLLVDVSQEELVQVAQAALVKNRCDFVLANDLMNVHETEHEGLLINETGIVQEACSKQGIGSMIVKNVEKKWREQQ
- stoichiometry N: 2
